Source: PMC6497250, “High-resolution cryo-EM structures of the E. coli hemolysin ClyA oligomers” (PLoS ONE, 2019)
Where “and” joins values, the source holds several entries; their conditions need not be identical. Equal entries are not always repeated.

Assays:
[1] = target: the molecule itself; experiment: cryo-EM structure; sample #3: ClyA 2.5 mg/mL with 0.5% DDM and 5 mM DTT at 4°C overnight, then SEC in 25 mM Tris-HCl pH 8.0, 150 mM NaCl, 0.05% digitonin, 2 mM DTT; Titan Krios 300 kV; C12, C13, C14 classes
[2] = target: the molecule itself; experiment: negative staining EM; ClyA incubated with 1% digitonin overnight, fractions from SEC (Superose 6 10/300 GL); intermediate state
[3] = target: the molecule itself; experiment: cryo-EM structure; sample #1: pore complexes in DDM, all SEC fractions pooled; Talos Arctica 200 kV; maps at 6.8 Å and 7.5 Å
[4] = target: the molecule itself; experiment: cryo-EM structure; digitonin-induced intermediate state; Talos Arctica; 2D class averages and a map at 16 Å

B1: E. coli cytolysin A (ClyA) with complete N-terminal purification tag (natural protein)
chain: MTEIVADKTVEVVKNAIETADGALDLYNKYLDQVIPWQTFDETIKELSRFKQEYSQAASVLVGDIKTLLMDSQDKYFEATQTVYEWCGVATQLLAAYILLFDEYNEKKASAQKDILIKVLDDGITKLNEAQKSLLVSSQSFNNASGKLLALDSQLTNDFSEKSSYFQSQVDKIRKEAYAGAAAGVVAGPFGLIISYSIAAGVVEGKLIPELKNKLKSVQNFFTTLSNTVKQANKDIDAAKLKLTTEIVAIGEIKTETETTRFYVDYDDLMLSLLKEAAKKMINTCNEYQKRHGKKTLFEVPEV
notes: E. coli cytolysin A (ClyA), cDNA amplified from BL21 (DE3), mutations and deletions removed by two-step PCR; final plasmid has A248V compared to UniProtKB P77335; The soluble protein is a monomer; the oligomers (12, 13, 14, about 3) form with detergent; also called hemolysin (HlyE); silent hemolysin A (SheA); source: E. coli BL21 (DE3), purified (Ni2+-NTA, Mono Q anion exchange); not shown: His6, …
stoichiometry N [1]: 14
stoichiometry N [2]: ~3
stoichiometry N [3]: 12 and 13
stoichiometry N [4]: 3 and 4
